Reference: patent US9695228B2, “EGFR and c-Met fibronectin type III domain binding molecules” (Janssen Biotech, Inc., priority 2012, dated 2017)
Like-named read-outs stand apart in the source and are kept apart here.

Columns and labels:
[1] = system: H292-HGF human lung cancer xenograft; assay type: in vivo; conditions: for Tumor Size at day 23: day 23 after tumor inoculation, doses as printed with treatment
Method: The H292-HGF cells were maintained in vitro in RPMI1640 medium supplemented with fetal bovine serum (10% v/v), and L-glutamine (2 mM) at 37° C. in an atmosphere of 5% CO2 in air. The cells were routinely subcultured twice weekly by trypsin-EDTA treatment. The cells growing in an exponential growth phase were harvested and counted for tumor inoculation.
Each mouse was inoculated subcutaneously at the right flank region with H292-HGF tumor cells (2×10^6) in 0.1 ml of PBS with cultrex (1:1) for tumor development. The treatments were started when the mean tumor size reached 139 mm^3. […] The date of tumor cell inoculation was denoted as day 0.
Before commencement of treatment, all animals were weighed and the tumor volumes were measured. Since the tumor volume can affect the effectiveness of any given treatment, mice were assigned into groups using randomized block design based upon their tumor volumes. […] The randomized block design was used to assign experimental animals to groups. First, the experimental animals were divided into homogeneous blocks according to their initial tumor volume. Secondly, within each block, randomization of experimental animals to treatments was conducted.
At the time of routine monitoring, the animals were checked for any effects of tumor growth and treatments on normal behavior, such as mobility, visual estimation of food and water consumption, body weight gain/loss (body weights were measured twice weekly), eye/hair matting and any other abnormal effect.
The endpoint was whether tumor growth can be delayed or tumor bearing mice can be cured. Tumor size was measured twice weekly in two dimensions using a caliper, and the volume was expressed in mm^3 using the formula: V=0.5 a×b^2 where a and b are the long and short diameters of the tumor, respectively. The tumor size was then used for calculations of both T-C and T/C values. T-C was calculated with T as the time (in days) required for the mean tumor size of the treatment group to reach 1000 mm^3, and C was the time (in days) for the mean tumor size of the control group to reach the same size. The T/C value (in percent) was an indication of antitumor efficacy; T and C were the mean tumor volume of the treated and control groups, respectively, on a given day. Complete tumor regression (CR) is defined as tumors that are reduced to below the limit of palpation (62.5 mm^3). Partial tumor regression (PR) is defined as tumors that are reduced from initial tumor volume. A minimum duration of CR or PR in 3 or more successive tumor measurements is required for a CP or PR to be considered durable.
Animals for which the body weight loss exceeded 20%, or for which the mean tumor size of the group exceeds 2000 mm^3 were euthanized. The study was terminated after two weeks of observation after the final dose.
Statistical analyses of difference in tumor volume among the groups were evaluated using a one-way ANOVA followed by individual comparisons using Games-Howell (equal variance not assumed). All data were analyzed using SPSS 18.0. p<0.05 was considered to be statistically significant.

[2] = molecular target: T1, c-Met-Fc fusion protein (Homo sapiens, UniProt P08581); test: c-Met-Fc affinity by surface plasmon resonance (ProteOn); assay type: binding; conditions: for binding to c-Met (in words): SPR; for Kd / ka / kd: serine mutants of A3 in the context of ECB15, SPR
T1 construct: recombinant EGFR and/or c-Met extracellular domain was further analyzed by surface Plasmon resonance
T1 sequence (P08581 25-932 limits assumed): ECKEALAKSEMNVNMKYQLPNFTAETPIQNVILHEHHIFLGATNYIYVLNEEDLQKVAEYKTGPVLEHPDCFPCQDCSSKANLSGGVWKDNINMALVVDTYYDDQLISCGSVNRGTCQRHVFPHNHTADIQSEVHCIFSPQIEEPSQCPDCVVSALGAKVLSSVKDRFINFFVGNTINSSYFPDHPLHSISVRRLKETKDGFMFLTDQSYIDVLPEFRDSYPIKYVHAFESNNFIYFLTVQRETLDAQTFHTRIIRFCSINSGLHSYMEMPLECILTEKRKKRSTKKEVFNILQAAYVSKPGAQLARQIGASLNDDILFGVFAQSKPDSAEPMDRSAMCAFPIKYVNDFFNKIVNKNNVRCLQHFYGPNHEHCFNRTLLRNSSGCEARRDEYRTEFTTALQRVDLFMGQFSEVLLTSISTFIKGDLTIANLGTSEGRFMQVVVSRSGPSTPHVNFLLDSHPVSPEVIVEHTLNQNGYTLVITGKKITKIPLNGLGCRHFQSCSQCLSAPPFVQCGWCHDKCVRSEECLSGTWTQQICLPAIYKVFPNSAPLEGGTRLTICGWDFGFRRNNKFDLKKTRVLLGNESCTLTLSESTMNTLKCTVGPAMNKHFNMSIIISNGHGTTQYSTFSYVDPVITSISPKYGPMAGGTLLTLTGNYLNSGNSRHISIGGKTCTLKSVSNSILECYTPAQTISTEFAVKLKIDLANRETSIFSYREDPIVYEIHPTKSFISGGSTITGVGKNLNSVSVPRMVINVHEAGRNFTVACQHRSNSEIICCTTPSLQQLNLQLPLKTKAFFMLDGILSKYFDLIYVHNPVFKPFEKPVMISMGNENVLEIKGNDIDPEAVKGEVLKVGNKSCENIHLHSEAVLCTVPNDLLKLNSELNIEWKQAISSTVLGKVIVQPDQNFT

Row | Molecule | binding to c-Met (in words) [2] | Kd [2] [µM] | ka [2] [M⁻¹ s⁻¹] | kd [2] [s⁻¹] | also measured
1 | C[C@@H](Oc1cc(-c2cnn(C3CCNCC3)c2)cnc1N)c1c(Cl)ccc(F)c1Cl [Crizotinib, crizotinib, reference compound] |  |  |  |  | T-C at 1000 mm^3 (tumor growth delay) ([1]; compared with the vehicle group): -1 days; Tumor volume ([1]; day 7 (start of treatment), mean ± SEM, doses as in column head): 140 ± 9 mm^3; Tumor volume ([1]; day 9, mean ± SEM): 217 ± 20 mm^3; Tumor volume ([1]; day 13, mean ± SEM): 547 ± 43 mm^3; Tumor volume ([1]; day 16, mean ± SEM): 914 ± 92 mm^3; Tumor volume ([1]; day 20, mean ± SEM): 1438 ± 239 mm^3; T/C ([1]; day 23): 120%; Tumor volume ([1]; day 23, mean ± SEM): 2102 ± 298 mm^3; Tumor Size at day 23 [1]: 2102 ± 298 mm^3; Tumor Size at day 23 ([1]; listed as crizotinib): 2,102 mm^3; antitumor activity (in words) ([1]; doses as in Table 14): no antitumor activity; tolerability / body weight loss (in words) ([1]; doses as in Table 14): More severe body weight loss
2 | C#Cc1cccc(Nc2ncnc3cc(OCCOC)c(OCCOC)cc23)c1 [Erlotinib, erlotinib, reference compound] |  |  |  |  | tolerability / body weight loss (in words) ([1]; doses as in Table 14): More severe body weight loss
3 | A3 R34S: serine mutant of c-Met domain A3 in the context of ECB15, SEQ ID NO: 221 (protein, c-Met binding FN3 domain) LPAPKNLVVSRVTEDSARLSWTAPDAAFDSFWISYFEFLGSGEAIVLTVPGSERSYDLTGLKPGTEYVVNIMGVKGGKISPPLSAIFTT | No binding was measurable | > 1 |  |  | 
4 | A3 179S: serine mutant of c-Met domain A3 in the context of ECB15, SEQ ID NO: 223 (protein, c-Met binding FN3 domain) LPAPKNLVVSRVTEDSARLSWTAPDAAFDSFWIRYFEFLGSGEAIVLTVPGSERSYDLTGLKPGTEYVVNIMGVKGGKSSPPLSAIFTT | No binding was measurable | > 1 |  |  | 
5 | A3 W32S: serine mutant of c-Met domain A3 in the context of ECB15, SEQ ID NO: 219 (protein, c-Met binding FN3 domain) LPAPKNLVVSRVTEDSARLSWTAPDAAFDSFSIRYFEFLGSGEAIVLTVPGSERSYDLTGLKPGTEYVVNIMGVKGGKISPPLSAIFTT |  |  | 289000 | 0.0086 | 

Now from value to molecule, other results behind:

Row | binding to c-Met (in words) [2] | Kd [2] [µM] | ka [2] [M⁻¹ s⁻¹] | kd [2] [s⁻¹] | Molecule | also measured
6 | No binding was measurable | > 1 |  |  | A3 M72S: serine mutant of c-Met domain A3 in the context of ECB15, SEQ ID NO: 220 (protein, c-Met binding FN3 domain) LPAPKNLVVSRVTEDSARLSWTAPDAAFDSFWIRYFEFLGSGEAIVLTVPGSERSYDLTGLKPGTEYVVNISGVKGGKISPPLSAIFTT | 
7 |  |  | 188000 | 0.00512 | A3 F36S: serine mutant of c-Met domain A3 in the context of ECB15, SEQ ID NO: 218 (protein, c-Met binding FN3 domain) LPAPKNLVVSRVTEDSARLSWTAPDAAFDSFWIRYSEFLGSGEAIVLTVPGSERSYDLTGLKPGTEYVVNIMGVKGGKISPPLSAIFTT | 
8 |  |  | 321000 | 0.000536 | A3 P81S: serine mutant of c-Met domain A3 in the context of ECB15, SEQ ID NO: 217 (protein, c-Met binding FN3 domain) LPAPKNLVVSRVTEDSARLSWTAPDAAFDSFWIRYFEFLGSGEAIVLTVPGSERSYDLTGLKPGTEYVVNIMGVKGGKISSPLSAIFTT | 
9 |  |  | 425000 | 0.00249 | A3 N70S: serine mutant of c-Met domain A3 in the context of ECB15, SEQ ID NO: 216 (protein, c-Met binding FN3 domain) LPAPKNLVVSRVTEDSARLSWTAPDAAFDSFWIRYFEFLGSGEAIVLTVPGSERSYDLTGLKPGTEYVVSIMGVKGGKISPPLSAIFTT | 
